Earlier results on two substances are cited in article PMC3135726.

The target in series [1] is Snurportin1 IBB (Homo sapiens) (UniProt O95149).
Series [2] has as its target Importin-α IBB (Homo sapiens) (UniProt P52292).
The target in another series is PTHrP (Homo sapiens) (UniProt P12272).
The target of series [3] is hnRNP M PY-NLS (Homo sapiens) (UniProt P52272).
In series [4] the target is hnRNP A1 PY-NLS (Homo sapiens) (UniProt P09651).
Sequence of hnRNP A1 PY-NLS (Homo sapiens) (P09651 320-357): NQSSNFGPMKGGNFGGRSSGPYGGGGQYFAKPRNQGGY

Sequence of Importin-β (Q14974 whole entry): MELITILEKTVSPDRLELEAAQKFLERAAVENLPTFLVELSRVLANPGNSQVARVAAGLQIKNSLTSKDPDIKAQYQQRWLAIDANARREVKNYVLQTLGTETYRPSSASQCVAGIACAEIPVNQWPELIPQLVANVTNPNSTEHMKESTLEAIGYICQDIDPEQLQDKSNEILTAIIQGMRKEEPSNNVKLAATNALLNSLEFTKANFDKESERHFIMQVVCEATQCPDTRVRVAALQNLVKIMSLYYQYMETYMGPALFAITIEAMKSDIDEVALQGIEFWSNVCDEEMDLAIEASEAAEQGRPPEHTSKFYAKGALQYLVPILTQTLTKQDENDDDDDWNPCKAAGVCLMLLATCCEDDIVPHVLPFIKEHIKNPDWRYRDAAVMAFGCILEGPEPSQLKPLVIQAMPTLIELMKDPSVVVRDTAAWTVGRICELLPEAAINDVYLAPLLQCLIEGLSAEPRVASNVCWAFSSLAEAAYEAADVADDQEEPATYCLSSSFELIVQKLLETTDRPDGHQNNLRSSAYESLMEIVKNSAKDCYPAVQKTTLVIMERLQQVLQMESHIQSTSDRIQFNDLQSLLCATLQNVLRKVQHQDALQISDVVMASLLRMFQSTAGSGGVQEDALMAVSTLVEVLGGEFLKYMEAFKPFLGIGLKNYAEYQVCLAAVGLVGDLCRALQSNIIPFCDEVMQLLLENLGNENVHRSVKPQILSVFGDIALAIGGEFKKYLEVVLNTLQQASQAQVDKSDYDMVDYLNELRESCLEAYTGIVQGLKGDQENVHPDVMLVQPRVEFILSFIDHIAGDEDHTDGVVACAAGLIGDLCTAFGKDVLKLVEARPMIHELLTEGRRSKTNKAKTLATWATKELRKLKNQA
Sequence of Kapβ2 (Q92973 whole entry): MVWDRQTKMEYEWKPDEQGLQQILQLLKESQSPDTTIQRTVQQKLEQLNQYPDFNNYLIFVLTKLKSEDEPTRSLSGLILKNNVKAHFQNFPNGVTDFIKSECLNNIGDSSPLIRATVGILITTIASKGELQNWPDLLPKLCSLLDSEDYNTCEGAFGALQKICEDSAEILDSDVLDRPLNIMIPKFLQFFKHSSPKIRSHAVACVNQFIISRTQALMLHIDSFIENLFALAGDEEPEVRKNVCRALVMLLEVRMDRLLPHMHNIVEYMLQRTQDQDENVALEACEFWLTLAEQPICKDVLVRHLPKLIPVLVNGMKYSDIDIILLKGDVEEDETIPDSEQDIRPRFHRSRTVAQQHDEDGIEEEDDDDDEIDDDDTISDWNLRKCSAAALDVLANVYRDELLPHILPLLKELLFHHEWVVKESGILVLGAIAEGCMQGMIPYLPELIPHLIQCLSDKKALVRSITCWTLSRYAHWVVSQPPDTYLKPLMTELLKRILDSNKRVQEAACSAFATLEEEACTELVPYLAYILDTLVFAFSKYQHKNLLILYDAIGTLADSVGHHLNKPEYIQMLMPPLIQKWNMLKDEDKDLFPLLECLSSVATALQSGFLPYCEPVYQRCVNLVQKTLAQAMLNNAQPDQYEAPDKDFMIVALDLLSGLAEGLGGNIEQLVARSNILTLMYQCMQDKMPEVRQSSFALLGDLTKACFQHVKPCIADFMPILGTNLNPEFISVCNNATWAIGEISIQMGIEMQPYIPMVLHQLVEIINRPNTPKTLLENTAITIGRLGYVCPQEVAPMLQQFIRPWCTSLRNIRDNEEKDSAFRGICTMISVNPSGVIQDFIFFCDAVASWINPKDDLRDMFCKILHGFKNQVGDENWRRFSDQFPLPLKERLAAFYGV
Sequence of PTHrP (Homo sapiens) (P12272 37-72): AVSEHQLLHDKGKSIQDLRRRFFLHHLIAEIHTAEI
Sequence of hnRNP M PY-NLS (Homo sapiens) (P52272 41-70): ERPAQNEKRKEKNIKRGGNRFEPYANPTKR
Sequence of Snurportin1 IBB (Homo sapiens) (O95149 8-76): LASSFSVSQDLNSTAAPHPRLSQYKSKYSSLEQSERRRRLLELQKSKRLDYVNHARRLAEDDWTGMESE

For Importin-β (from UniProt Q14974), the Kd (in series [1]; in series [2]; with PTHrP (Homo sapiens)) was 2 nM each time.
Consider Kapβ2 (from UniProt Q92973), for which the Kd is 10 nM in series [3] and 42 nM in series [4].
